Columns and labels:
hPD-1-Fc [1] = target: T1, hPD-1-Fc (human, UniProt Q15116 25-167); experiment: SPR Biacore T200, PD-1-Fc immobilised
T1 construct: domain: IgV domain; also called human PD-1-Fc; not shown: human IgG1 Fc

[2] = target: T2, human PD-1 expressed on cells (human, UniProt Q15116 25-288); experiment: cell-based or functional assay
hPD-1-his [3] = target: T3, hPD-1-his (human, UniProt Q15116 25-167); experiment: SPR, Exp. 4
T3 construct: domain: IgV domain; monomer in solution; biotin-labelled where captured by streptavidin; also called biotin-hPD-1-his
T3 sequence (Q15116 other isoform, or with tags, fused parts or gaps limits assumed): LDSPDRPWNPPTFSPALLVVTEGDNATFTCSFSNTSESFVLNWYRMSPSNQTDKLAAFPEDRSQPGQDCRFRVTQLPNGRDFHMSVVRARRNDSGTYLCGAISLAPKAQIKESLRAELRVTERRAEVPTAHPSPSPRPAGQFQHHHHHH

[4] = target: T2, human PD-1 expressed on cells; experiment: flow cytometry, SEB-activated PBMC donor
hPD-1-Fc [5] = target: T1, hPD-1-Fc; experiment: blocking ELISA, PD-1 to PD-L1
hPD-1-Fc [6] = target: T1, hPD-1-Fc; experiment: ELISA, hPD-1-Fc coated
hPD-1-Fc [7] = target: T1, hPD-1-Fc; experiment: SPR, range over experiments
hPD-1-his [8] = target: T3, hPD-1-his; experiment: ELISA, PD-1-his on anti-his
[9] = target: T4, hPD1 (soluble, ELISA of Example 20) (human, UniProt Q15116 25-167, limits assumed); experiment: ELISA, hPD1
T4 sequence (Q15116 25-167 limits assumed): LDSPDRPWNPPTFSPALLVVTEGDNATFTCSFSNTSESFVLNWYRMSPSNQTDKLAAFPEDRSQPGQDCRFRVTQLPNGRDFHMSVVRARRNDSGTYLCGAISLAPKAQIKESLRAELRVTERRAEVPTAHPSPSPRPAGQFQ

hPD-1-his [10] = target: T3, hPD-1-his; experiment: ELISA, biotin-PD-1-his on streptavidin
[11] = target: T2, human PD-1 expressed on cells; experiment: flow cytometry, activated PBMC donor two
[12] = target: T5, mPD1 (soluble, ELISA of Examples 20 and 24) (mouse, UniProt Q02242 25-167, limits assumed); experiment: ELISA, mPD1
T5 construct: also called Biotin-mPD1
T5 sequence (looked up): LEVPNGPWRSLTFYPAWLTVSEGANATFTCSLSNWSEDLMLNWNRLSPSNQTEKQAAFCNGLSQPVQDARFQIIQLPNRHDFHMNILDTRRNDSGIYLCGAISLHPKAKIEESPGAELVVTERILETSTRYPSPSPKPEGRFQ

[13] = target: T2, human PD-1 expressed on cells; experiment: flow cytometry, SEB-activated PBMC donor two
[14] = target: T2, human PD-1 expressed on cells; experiment: cell-based or functional assay; remark: listed apart in the source
hPD-1-Fc [15] = target: T1, hPD-1-Fc; experiment: SPR, Exp. 1
hPD-1-his [16] = target: T3, hPD-1-his; experiment: SPR, Exp. 1
[17] = target: T2, human PD-1 expressed on cells; experiment: cell-based or functional assay; remark: listed apart in the source
[18] = target: T2, human PD-1 expressed on cells; experiment: flow cytometry, hPD-1-Jurkat cells
hPD-1-Fc [19] = target: T1, hPD-1-Fc; experiment: blocking ELISA, PD-1 to PD-L2
hPD-1-Fc [20] = target: T1, hPD-1-Fc; experiment: SPR, Exp. 2
hPD-1-his [21] = target: T3, hPD-1-his; experiment: SPR, Exp. 2
[22] = target: T2, human PD-1 expressed on cells; experiment: flow cytometry, activated PBMC donor FA
[23] = target: T2, human PD-1 expressed on cells; experiment: flow cytometry, hPD1-Jurkat cells
[24] = target: T2, human PD-1 expressed on cells; experiment: flow cytometry, hPD1-Jurkat cells; remark: listed apart in the source
[25] = target: T2, human PD-1 expressed on cells; experiment: flow cytometry, hPD-1-293 cells
[26] = target: T2, human PD-1 expressed on cells; experiment: flow cytometry, hPD1-293 cells
hPD-1-his [27] = target: T3, hPD-1-his; experiment: ELISA, PD-1-his on streptavidin
hPD-1-Fc [28] = target: T1, hPD-1-Fc; experiment: SPR Biacore, hPD1-Fc
hPD-1-his [29] = target: T3, hPD-1-his; experiment: SPR Biacore T200, PD-1-his immobilised
hPD-1-Fc [30] = target: T1, hPD-1-Fc; experiment: SPR, Exp. 3
hPD-1-his [31] = target: T3, hPD-1-his; experiment: SPR, Exp. 3
[32] = target: T4, hPD1 (soluble, ELISA of Example 20); experiment: blocking ELISA, hPD1 to hPDL1
mPD-1-Fc = target: T6, mPD-1-Fc (mouse; human, UniProt Q02242 25-167, limits assumed); experiment: SPR Biacore
T6 construct: domain: IgV domain; not shown: human IgG1 Fc
T6 sequence (looked up): T5 sequence (looked up)

mPD-1-his = target: T7, mPD-1-his (mouse, UniProt Q02242 25-167, limits assumed); experiment: SPR Biacore
T7 construct: domain: IgV domain
T7 sequence: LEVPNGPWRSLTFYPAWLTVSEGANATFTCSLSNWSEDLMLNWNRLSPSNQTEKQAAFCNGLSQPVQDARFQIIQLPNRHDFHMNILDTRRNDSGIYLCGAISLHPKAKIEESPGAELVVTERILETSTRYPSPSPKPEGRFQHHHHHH

hPD-1-his [33] = target: T3, hPD-1-his; experiment: ELISA, PD-1-his on anti-his; remark: listed apart in the source
[34] = target: T2, human PD-1 expressed on cells; experiment: flow cytometry, hPD1-293 cells; remark: listed apart in the source
[35] = target: T2, human PD-1 expressed on cells; experiment: cell-based or functional assay; remark: listed apart in the source
hPD-1-Fc [36] = target: T1, hPD-1-Fc; experiment: ELISA, PD-1-Fc coated
hPD-1-Fc [37] = target: T1, hPD-1-Fc; experiment: blocking ELISA, hPD-1 to hPD-L1; set-up: unit not given here

T1 sequence (Q15116 25-167 limits assumed): as the sequence (Q15116 25-167 limits assumed) above
T2 sequence (Q15116 25-288): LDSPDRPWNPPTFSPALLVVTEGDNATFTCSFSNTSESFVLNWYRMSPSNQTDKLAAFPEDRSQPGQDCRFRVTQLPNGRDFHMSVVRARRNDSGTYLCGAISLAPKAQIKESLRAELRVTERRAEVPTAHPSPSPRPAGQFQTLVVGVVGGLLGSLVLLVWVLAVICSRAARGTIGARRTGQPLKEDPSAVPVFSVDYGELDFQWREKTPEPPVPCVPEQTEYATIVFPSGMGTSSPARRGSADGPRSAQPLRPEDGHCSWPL

B1: 38B2 (antibody, V domains shown)
VH: EVQLLESGGGLVQPGGSLRLSCAASGFTFSSYWMSWVRQAPGKGLEWVSAISGSGGSTYYADSVKGRFTISRDNSKNTLYLQMNSLRAEDTAVYYCASSPLQWVDVWGQGTTVTVSS
VL: DIQMTQSPSSLSASVGDRVTITCRASESISSWLAWYQQKPGKAPKLLIYDASSLESGVPSRFSGSGSGTDFTLTISSLQPEDFATYYCQQGDSFPFTFGQGTKLEIK
notes: 24H9 derivative, IgG; also called 780_54; hPD1 Ab (38B2)
hPD-1-Fc [1]
  Kd: 0.249 nM
[2]
  EC50, Promega blockade bioassay: 0.154 µg/mL
  Fold induction: 6.54 fold
hPD-1-his [3]
  Kd: 0.205 nM
[4]
  MFI, 5 nM: 64.2 MFI
hPD-1-Fc [5]
  IC50: 2.37 nM
  Inhibition % at 50 nM: 93.9%
  Inhibition, % at 5.56 nM: 92.7%
hPD-1-Fc [6]
  OD at 10 nM: 1.05 OD
hPD-1-Fc [7]
  Kd: 0.01 to 0.03 nM
hPD-1-his [8]
  OD at 10 nM: 0.662 OD
[9]
  EC50: 0.125 nM
hPD-1-his [10]
  EC50: 0.081 nM
[11]
  EC50: 0.1 nM
  MFI at 25 nM: 16.7 MFI
[12]
  binding result: no binding
[13]
  MFI, 5 nM: 55.3 MFI
[14]
  EC50 averaged from two experiments, Promega blockade bioassay: 0.154 µg/mL
  IC50, Promega blockade bioassay: 0.725 nM
hPD-1-Fc [15]
  Kd: < 0.033 nM
hPD-1-his [16]
  Kd: 0.946 nM
[17]
  EC50 (read off the curve): ~0.5 nM
[18]
  MFI, 5 nM: 60.8 MFI
hPD-1-Fc [19]
  IC50: 1.93 nM
  Inhibition, % at 3.7 nM: 93.9%
  Inhibition, % at 100 nM: 95.1%
hPD-1-Fc [20]
  Kd: < 0.01 nM
hPD-1-his [21]
  Kd: 0.423 nM
[22]
  EC50: 0.15 nM
  MFI at 25 nM: 16.6 MFI
[23]
  EC50: 0.137 nM
[24]
  EC50: 0.16 nM
  MFI at 5 nM: 91 MFI
[25]
  MFI, 5 nM: 297 MFI
[26]
  EC50: 0.12 nM
  MFI at 5 nM: 118 MFI
hPD-1-his [27]
  OD at 10 nM: 1.04 OD
hPD-1-Fc [28]
  Kd: 0.147 nM
  koff: 3.26e-05 s⁻¹
  kon: 221000 M⁻¹ s⁻¹
hPD-1-his [29]
  Kd: 0.318 nM
hPD-1-Fc [30]
  Kd: < 0.01 nM
hPD-1-his [31]
  Kd: 0.932 nM
[32]
  IC50: 4.25 nM
mPD-1-Fc
  binding result: no binding
mPD-1-his
  binding result: no binding
hPD-1-his [33]
  EC50: 0.06 nM
[34]
  EC50: 0.267 nM
[35]
  EC50, Promega blockade bioassay, Exp. 1: 0.189 µg/mL
  EC50, Promega blockade bioassay, Exp. 2: 0.135 µg/mL
  Fold induction at 12 µg/ml, Exp. 1: 7.61 fold
  Fold induction at 12 µg/ml, Exp. 2: 8.31 fold
hPD-1-Fc [36]
  EC50: 0.096 nM
hPD-1-Fc [37]
  Inhibition at 50 nM: 93.4
